In patent US20230265151A1, “GIP/GLP1 CO-AGONIST COMPOUNDS” (priority 2020, published 2023):
*1 amine or outer side, *2 acyl side, *3 side chain or, on linkers, in order; H or OH if unused. Where no end group is shown, it is not given here. Side-chain parts run from the residue outwards. [ ]: non-standard residue; d: D form. The star is where a group is joined. Butanoyl(4-(4-tBuPh)) = CC(C)(C)c1ccc(CCCC(=O)*)cc1; αMePhe(2-F) = C[C@](N)(Cc1ccccc1F)C(=O)O; γGlu = O=C(O)[C@H](CCC(=O)[*:2])N[*:1]; C14 diacid = O=C(O)CCCCCCCCCCCCC(=O)*; αMeY = C[C@](N)(Cc1ccc(O)cc1)C(=O)O; αMeF = C[C@](N)(Cc1ccccc1)C(=O)O; αMeL = CC(C)C[C@](C)(N)C(=O)O; Lauroyl = CCCCCCCCCCCC(=O)*; Orn = NCCC[C@H](N)C(=O)O; AEEA = NCCOCCOCC(=O)O; Aib = CC(C)(N)C(=O)O

T1: human glucose-dependent insulinotropic polypeptide (GIP) receptor (human, UniProt P48546 22-466)
T1 sequence (looked up): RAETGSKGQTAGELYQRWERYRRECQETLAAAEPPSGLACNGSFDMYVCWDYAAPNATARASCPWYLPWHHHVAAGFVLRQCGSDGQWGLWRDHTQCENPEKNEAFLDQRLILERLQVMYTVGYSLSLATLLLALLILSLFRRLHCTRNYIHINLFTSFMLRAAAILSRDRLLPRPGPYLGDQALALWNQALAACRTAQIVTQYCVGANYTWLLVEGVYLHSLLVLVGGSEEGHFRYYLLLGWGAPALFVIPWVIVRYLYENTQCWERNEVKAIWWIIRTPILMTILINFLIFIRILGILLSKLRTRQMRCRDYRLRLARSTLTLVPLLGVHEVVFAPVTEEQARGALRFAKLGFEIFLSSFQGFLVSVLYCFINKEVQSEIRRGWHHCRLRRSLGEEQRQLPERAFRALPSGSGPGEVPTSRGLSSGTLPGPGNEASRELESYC


Tests used:
Experiment in all cases: cell-based or functional assay
[1] = biological target: T1, human glucose-dependent insulinotropic …
[2] = biological target: human glucagon-like peptide-1 (GLP-1) receptor (human, UniProt P43220 24-463)
human glucagon receptor = human glucagon receptor (human, UniProt P47871 26-477)

Binder	cAMP EC50 [1] [nM]	cAMP Emax [1] [%]	cAMP EC50 [2] [nM]	cAMP Emax [2] [%]	cAMP EC50 (1.0% HSA) (human glucagon receptor) [nM]
Y[Aib]EGT[αMeF]TSDV[Aib]I[αMeL]LD[Orn]K([AEEA-AEEA-γGlu-C14 diacid])AQ[Aib]EFI[dE][αMeY]LIEGGK([AEEA-AEEA-γGlu-C14 diacid])SSGAPPPS-NH2 (N-terminus assumed; SMILES CC[C@H](C)[C@H](NC(=O)[C@H](CC(C)C)NC(=O)[C@](C)(Cc1ccc(O)cc1)NC(=O)[C@@H](CCC(=O)O)NC(=O)[C@@H](NC(=O)[C@H](Cc1ccccc1)NC(=O)[C@H](CCC(=O)O)NC(=O)C(C)(C)NC(=O)[C@H](CCC(N)=O)NC(=O)[C@H](C)NC(=O)[C@H](CCCCNC(=O)COCCOCCNC(=O)COCCOCCNC(=O)CC[C@H](NC(=O)CCCCCCCCCCCCC(=O)O)C(=O)O)NC(=O)[C@H](CCCN)NC(=O)[C@H](CC(=O)O)NC(=O)[C@H](CC(C)C)NC(=O)[C@](C)(CC(C)C)NC(=O)[C@@H](NC(=O)C(C)(C)NC(=O)[C@@H](NC(=O)[C@H](CC(=O)O)NC(=O)[C@H](CO)NC(=O)[C@@H](NC(=O)[C@](C)(Cc1ccccc1)NC(=O)[C@@H](NC(=O)CNC(=O)[C@H](CCC(=O)O)NC(=O)C(C)(C)NC(=O)[C@@H](N)Cc1ccc(O)cc1)[C@@H](C)O)[C@@H](C)O)C(C)C)[C@@H](C)CC)[C@@H](C)CC)C(=O)N[C@@H](CCC(=O)O)C(=O)NCC(=O)NCC(=O)N[C@@H](CCCCNC(=O)COCCOCCNC(=O)COCCOCCNC(=O)CC[C@H](NC(=O)CCCCCCCCCCCCC(=O)O)C(=O)O)C(=O)N[C@@H](CO)C(=O)N[C@@H](CO)C(=O)NCC(=O)N[C@@H](C)C(=O)N1CCC[C@H]1C(=O)N1CCC[C@H]1C(=O)N1CCC[C@H]1C(=O)N[C@@H](CO)C(N)=O) [Example 180]	0.224	86.8	0.26	–	–
Y[Aib]EGT[αMePhe(2-F)]TSDV[Aib]I[αMeL]LD[Orn]K([AEEA-AEEA-γGlu-Lauroyl])AQ[Aib]EFI[dE][αMeY]LIEGGK([AEEA-AEEA-γGlu-Lauroyl])SSGAPPPS-NH2 (N-terminus assumed; SMILES CCCCCCCCCCCC(=O)N[C@@H](CCC(=O)NCCOCCOCC(=O)NCCOCCOCC(=O)NCCCC[C@H](NC(=O)CNC(=O)CNC(=O)[C@H](CCC(=O)O)NC(=O)[C@@H](NC(=O)[C@H](CC(C)C)NC(=O)[C@](C)(Cc1ccc(O)cc1)NC(=O)[C@@H](CCC(=O)O)NC(=O)[C@@H](NC(=O)[C@H](Cc1ccccc1)NC(=O)[C@H](CCC(=O)O)NC(=O)C(C)(C)NC(=O)[C@H](CCC(N)=O)NC(=O)[C@H](C)NC(=O)[C@H](CCCCNC(=O)COCCOCCNC(=O)COCCOCCNC(=O)CC[C@H](NC(=O)CCCCCCCCCCC)C(=O)O)NC(=O)[C@H](CCCN)NC(=O)[C@H](CC(=O)O)NC(=O)[C@H](CC(C)C)NC(=O)[C@](C)(CC(C)C)NC(=O)[C@@H](NC(=O)C(C)(C)NC(=O)[C@@H](NC(=O)[C@H](CC(=O)O)NC(=O)[C@H](CO)NC(=O)[C@@H](NC(=O)[C@](C)(Cc1ccccc1F)NC(=O)[C@@H](NC(=O)CNC(=O)[C@H](CCC(=O)O)NC(=O)C(C)(C)NC(=O)[C@@H](N)Cc1ccc(O)cc1)[C@@H](C)O)[C@@H](C)O)C(C)C)[C@@H](C)CC)[C@@H](C)CC)[C@@H](C)CC)C(=O)N[C@@H](CO)C(=O)N[C@@H](CO)C(=O)NCC(=O)N[C@@H](C)C(=O)N1CCC[C@H]1C(=O)N1CCC[C@H]1C(=O)N1CCC[C@H]1C(=O)N[C@@H](CO)C(N)=O)C(=O)O) [Example 175]	0.0337	100	0.227	91.1	–
Y[Aib]EGT[αMeF]TSDV[Aib]I[αMeL]LD[Orn]K([AEEA-AEEA-γGlu-Lauroyl])AQ[Aib]EFI[dE][αMeY]LIEGGK([AEEA-AEEA-γGlu-Lauroyl])SSGAPPPS-NH2 (N-terminus assumed; SMILES CCCCCCCCCCCC(=O)N[C@@H](CCC(=O)NCCOCCOCC(=O)NCCOCCOCC(=O)NCCCC[C@H](NC(=O)CNC(=O)CNC(=O)[C@H](CCC(=O)O)NC(=O)[C@@H](NC(=O)[C@H](CC(C)C)NC(=O)[C@](C)(Cc1ccc(O)cc1)NC(=O)[C@@H](CCC(=O)O)NC(=O)[C@@H](NC(=O)[C@H](Cc1ccccc1)NC(=O)[C@H](CCC(=O)O)NC(=O)C(C)(C)NC(=O)[C@H](CCC(N)=O)NC(=O)[C@H](C)NC(=O)[C@H](CCCCNC(=O)COCCOCCNC(=O)COCCOCCNC(=O)CC[C@H](NC(=O)CCCCCCCCCCC)C(=O)O)NC(=O)[C@H](CCCN)NC(=O)[C@H](CC(=O)O)NC(=O)[C@H](CC(C)C)NC(=O)[C@](C)(CC(C)C)NC(=O)[C@@H](NC(=O)C(C)(C)NC(=O)[C@@H](NC(=O)[C@H](CC(=O)O)NC(=O)[C@H](CO)NC(=O)[C@@H](NC(=O)[C@](C)(Cc1ccccc1)NC(=O)[C@@H](NC(=O)CNC(=O)[C@H](CCC(=O)O)NC(=O)C(C)(C)NC(=O)[C@@H](N)Cc1ccc(O)cc1)[C@@H](C)O)[C@@H](C)O)C(C)C)[C@@H](C)CC)[C@@H](C)CC)[C@@H](C)CC)C(=O)N[C@@H](CO)C(=O)N[C@@H](CO)C(=O)NCC(=O)N[C@@H](C)C(=O)N1CCC[C@H]1C(=O)N1CCC[C@H]1C(=O)N1CCC[C@H]1C(=O)N[C@@H](CO)C(N)=O)C(=O)O) [Example 176]	0.0485	89.3	0.298	–	–
Y[Aib]EGT[αMePhe(2-F)]TSDV[Aib]I[αMeL]LD[Orn]K([AEEA-AEEA-γGlu-Butanoyl(4-(4-tBuPh))])AQ[Aib]EFI[dE][αMeY]LIEGGK([AEEA-AEEA-γGlu-Butanoyl(4-(4-tBuPh))])SSGAPPPS-NH2 [Example 177]	0.0433	113	0.178	–	–
YXEGTXTSDXSIXLDXKAQXEFIXXLIEGGKSSGAPPPS (Aib2, αMeF(2F)6, 4Pal10, αMeL13, Orn16, Aib20, D-Glu24, αMeY25; acylated K17, K31 (groups as in name); C-terminal amide) [Y-Aib-EGT-αMeF(2F)-TSD-4Pal-SI-αMeL-LD-Orn-K((2-[2-(2-Amino-ethoxy)-ethoxy]-acetyl)2-(γ-Glu)-CO-(CH2)12-CO2H)AQ-Aib-EFI-(D-Glu)-αMeY-LIEGGK((2-[2-(2-Amino-ethox …, listing 1 of 3 here]	–	–	–	–	> 9950
YXEGTXTSDXSIXLDXKAQXEFIXXLIEGGKSSGAPPPS (Aib2, αMeF(2F)6, 4Pal10, αMeL13, Orn16, Aib20, D-Glu24, αMeY25; acylated K17, K31 (groups as in name); C-terminal amide) [Y-Aib-EGT-αMeF(2F)-TSD-4Pal-SI-αMeL-LD-Orn-K((2-[2-(2-Amino-ethoxy)-ethoxy]-acetyl)2-CO-(CH2)12-CO2H)AQ-Aib-EFI-(D-Glu)-αMeY-LIEGGK((2-[2-(2-Amino-ethoxy)-ethox …, listing 2 of 3 here]	–	–	–	–	> 9950
YXEGTXTSDXSIXLDXKAQXEFIXXLIEGGKSSGAPPPS (Aib2, αMeF(2F)6, 4Pal10, αMeL13, Orn16, Aib20, D-Glu24, αMeY25; acylated K17, K31 (groups as in name); C-terminal amide) [Y-Aib-EGT-αMeF(2F)-TSD-4Pal-SI-αMeL-LD-Orn-K((2-[2-(2-Amino-ethoxy)-ethoxy]-acetyl)2-(γ-Glu)-CO-(CH2)10-CO2H)AQ-Aib-EFI-(D-Glu)-αMeY-LIEGGK((2-[2-(2-Amino-ethox …, listing 3 of 3 here]	–	–	–	–	> 9950
